From paper PMC7469494 (Autophagy, 2019)
Numbering of substitutions follows the chain as printed.

What was measured:
[1] = target: T1, tVac8 (Vac8 construct comprising residues 10–515) (S. cerevisiae, UniProt P39968 10-515); assay: AUC
T1 sequence (looked up): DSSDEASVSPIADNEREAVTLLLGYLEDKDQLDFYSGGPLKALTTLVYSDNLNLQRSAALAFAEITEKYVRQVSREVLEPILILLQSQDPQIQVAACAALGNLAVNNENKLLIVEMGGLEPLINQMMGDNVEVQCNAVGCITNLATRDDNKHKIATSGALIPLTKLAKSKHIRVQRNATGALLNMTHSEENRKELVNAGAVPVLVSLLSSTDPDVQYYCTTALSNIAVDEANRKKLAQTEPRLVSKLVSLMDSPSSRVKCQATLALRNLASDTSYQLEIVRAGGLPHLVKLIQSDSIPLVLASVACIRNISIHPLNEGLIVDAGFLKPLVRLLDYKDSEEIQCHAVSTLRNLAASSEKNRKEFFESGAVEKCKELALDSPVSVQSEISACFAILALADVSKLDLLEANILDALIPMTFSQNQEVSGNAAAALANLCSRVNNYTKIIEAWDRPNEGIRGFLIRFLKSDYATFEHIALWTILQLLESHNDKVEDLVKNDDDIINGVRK

Vac8[40–515]^A51R = target: T2, Vac8[40–515]^A51R (S. cerevisiae, UniProt P39968 40-515, A51R); assay: SEC
T2 sequence (looked up): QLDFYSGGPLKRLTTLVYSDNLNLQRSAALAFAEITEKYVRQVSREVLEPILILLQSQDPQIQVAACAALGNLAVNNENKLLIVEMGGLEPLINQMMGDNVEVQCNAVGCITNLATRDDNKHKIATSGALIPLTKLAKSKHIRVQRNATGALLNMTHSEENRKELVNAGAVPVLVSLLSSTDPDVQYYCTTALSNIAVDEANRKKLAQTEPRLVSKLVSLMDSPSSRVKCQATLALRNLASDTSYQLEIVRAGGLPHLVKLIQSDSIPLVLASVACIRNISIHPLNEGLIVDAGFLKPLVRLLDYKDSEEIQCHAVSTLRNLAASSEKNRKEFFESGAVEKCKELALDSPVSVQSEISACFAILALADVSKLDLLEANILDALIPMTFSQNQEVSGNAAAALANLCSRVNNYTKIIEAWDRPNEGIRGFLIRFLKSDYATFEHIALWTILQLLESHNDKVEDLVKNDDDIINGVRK

Vac8[40–515]^L55R = target: T3, Vac8[40–515]^L55R (S. cerevisiae, UniProt P39968 40-515, L55R); assay: SEC
T3 sequence (looked up): T2 sequence (looked up) with R12A, L16R

Vac8[40–515]^N62R = target: T4, Vac8[40–515]^N62R (S. cerevisiae, UniProt P39968 40-515, N62R); assay: SEC
T4 sequence (looked up): T2 sequence (looked up) with R12A, N23R

Vac8[40–515]^N60R,N62R = target: T5, Vac8[40–515]^N60R,N62R (S. cerevisiae, UniProt P39968 40-515, N60R | N62R); assay: SEC
T5 sequence (looked up): T2 sequence (looked up) with R12A, N21R, N23R

Measured: binding result

B1: tAtg13 (Atg13 construct comprising residues 567–695) (domain or fragment, S. cerevisiae, UniProt Q06628 567-695, looked up)
chain: GGNSSTSALNSRRNSLDKSSNKQGMSGLPPIFGGESTSYHHDNKIQKYNQLGVEEDDDDENDRLLNQMGNSATKFKSSISPRSIDSISSSFIKSRIPIRQPYHYSQPTTAPFQAQAKFHKPANKLIDNG
binds: all assays above
